Test results reported in patent publication US20240124560A1.

Assays:
Experiment in all cases: cell-based or functional assay
[1] = target: HIV-1 Env of NAC_HxB2 (HIV-1) (UniProt P04578)
[2] = target: HIV-1 Env of NAC_REJO.67 (HIV-1)
[3] = target: HIV-1 Env of NAC_SS1196.1 (HIV-1)
[4] = target: HIV-1 Env of NAC_YU2 (HIV-1) (UniProt P35961)
[5] = target: HIV-1 Env of NIH-013_6240.08.TA5.4622 (HIV-1)
[6] = target: HIV-1 Env of NIH-015_62357.14.D3.4589 (HIV-1)
[7] = target: HIV-1 Env of NIH-024_ZM53M.PB12 (HIV-1)
[8] = target: HIV-1 Env of NIH-038_Ce1172 H1 (HIV-1)
[9] = target: HIV-1 Env of NIH-045_7030102001E5(Rev.) (HIV-1)
[10] = target: HIV-1 Env of NIH-048_CNE19 (HIV-1)
[11] = target: HIV-1 Env of NIH-052_CNE30 (HIV-1)
[12] = target: HIV-1 Env of NIH-053_CNE52 (HIV-1)
[13] = target: HIV-1 Env of NIH-057_MS208.A1 (HIV-1)
[14] = target: HIV-1 Env of NIH-068_620345.c01 (HIV-1)
[15] = target: HIV-1 Env of NIH-069_C1080.c03 (HIV-1)
[16] = target: HIV-1 Env of NIH-075_CNE8 (HIV-1)
[17] = target: HIV-1 Env of NIH-077_BJOX009000.02.4 (HIV-1)
[18] = target: HIV-1 Env of NIH-079_BJOX010000.06.2 (HIV-1)
[19] = target: HIV-1 Env of NIH-080_BJOX025000.01.1 (HIV-1)
[20] = target: HIV-1 Env of NIH-094_3817.v2.c59 (HIV-1)
[21] = target: HIV-1 Env of NIH-099_3301.v1.c24 (HIV-1)
[22] = target: HIV-1 Env of NIH-102_6545.v4.c1 (HIV-1)
[23] = target: HIV-1 Env of NIH-103_0815.v3.c3 (HIV-1)
[24] = target: HIV-1 Env of NIH-106_T250.4 (HIV-1)
[25] = target: HIV-1 Env of isolate NIH-087_P1981 C5 3 (HIV-1)
[26] = target: HIV-1 Env of isolate NIH-091_231965.c01 (HIV-1)
[27] = target: HIV-1 Env of pseudovirus NAC_HxB2 (HIV-1) (UniProt P04578)
[28] = target: HIV-1 Env of pseudovirus NAC_IAVIC22 (HIV-1)
[29] = target: HIV-1 Env of pseudovirus NAC_RHPA4.7 (HIV-1)
[30] = target: HIV-1 Env of pseudovirus NAC_SF162 (HIV-1)
[31] = target: HIV-1 Env of pseudovirus NAC_WITO.33 (HIV-1)
[32] = target: HIV-1 Env of pseudovirus NHI-028_CAP210.E8 (HIV-1)
[33] = target: HIV-1 Env of pseudovirus NIH-019_Du422.1 (HIV-1)
[34] = target: HIV-1 Env of pseudovirus NIH-024_ZM53M.PB12 (HIV-1)
[35] = target: HIV-1 Env of pseudovirus NIH-035_Ce1176 A3 (HIV-1)
[36] = target: HIV-1 Env of pseudovirus NIH-048_CNE19 (HIV-1)
[37] = target: HIV-1 Env of pseudovirus NIH-058_Q23ENV17 (HIV-1)
[38] = target: HIV-1 Env of pseudovirus NIH-066_191084 B7.19 (HIV-1)
[39] = target: HIV-1 Env of pseudovirus NIH-079_BJOX010000.06.2 (HIV-1)
[40] = target: HIV-1 Env of pseudovirus NIH-081_BJOX028000.10.3 (HIV-1)
[41] = target: HIV-1 Env of pseudovirus NIH-100_6041.v3.c23 (HIV-1)
[42] = target: HIV-1 Env of pseudovirus NIH-103_0815.v3.c3 (HIV-1)
[43] = target: HIV-1 Env of pseudovirus NIH-107_T251.18 (HIV-1)
[44] = target: HIV-1 Env of pseudovirus NIH-116_T263.8 (HIV-1)
[45] = target: HIV-1 Env of pseudovirus NIH-119_T211.9 (HIV-1)
[46] = target: envelope protein of control pseudovirus NAC_VSV

With VRC01 (antibody) the IC80 neutralization [1] was 0.081 µg/mL, the IC80 neutralization [2] was 0.414 µg/mL and the IC80 neutralization [3] was 0.659 µg/mL. The IC80 neutralization [4] was 0.69 µg/mL, the IC80 neutralization [5] was 2.62 µg/mL and the IC80 neutralization [6] was 6.95 µg/mL. For the same substance, the IC80 neutralization [7] was 3.63 µg/mL, the IC80 neutralization [8] was > 50 µg/mL and the IC80 neutralization [9] was 1.49 µg/mL. For the same substance, the IC80 neutralization [10] was 0.512 µg/mL, the IC80 neutralization [11] was 2.38 µg/mL and the IC80 neutralization [12] was 0.565 µg/mL. For the same substance, the IC80 neutralization [13] was 0.252 µg/mL, the IC80 neutralization [14] was > 50 µg/mL and the IC80 neutralization [15] was 5.7 µg/mL. The IC80 neutralization [16] was 0.514 µg/mL, the IC80 neutralization [17] was 2.34 µg/mL and the IC80 neutralization [18] was 7.79 µg/mL. The IC80 neutralization [19] was 24.8 µg/mL, the IC80 neutralization [20] was > 50 µg/mL and the IC80 neutralization [21] was 0.463 µg/mL. For the same substance, the IC80 neutralization [22] was > 50 µg/mL, the IC80 neutralization [23] was 0.07 µg/mL and the IC80 neutralization [24] was > 50 µg/mL. It also gave an IC80 (µg/ml), TZM-bl pseudovirus neutralization [25] of 0.8 µg/mL, an IC80 (µg/ml), TZM-bl pseudovirus neutralization [26] of 0.743 µg/mL and a neutralization IC50 [27] of 0.022 µg/mL. For the same substance, the neutralization IC50 [28] was 0.348 µg/mL, the neutralization IC50 [29] was 0.035 µg/mL and the neutralization IC50 [30] was 0.262 µg/mL. For the same substance, the neutralization IC50 [31] was 0.055 µg/mL, the neutralization IC50 [32] was > 50 µg/mL and the neutralization IC50 [33] was > 50 µg/mL. The neutralization IC50 [34] was 0.917 µg/mL, the neutralization IC50 [35] was 1.25 µg/mL and the neutralization IC50 [36] was 0.127 µg/mL. It also gave a neutralization IC50 [37] of 0.038 µg/mL, a neutralization IC50 [38] of 0.049 µg/mL and a neutralization IC50 [39] of 1.77 µg/mL. For the same substance, the neutralization IC50 [40] was 0.141 µg/mL, the neutralization IC50 [41] was 0.023 µg/mL and the neutralization IC50 [42] was 0.019 µg/mL. It also gave a neutralization IC50 [43] of 2.02 µg/mL, a neutralization IC50 [44] of 0.124 µg/mL and a neutralization IC50 [45] of 12.8 µg/mL. For the same substance, the IC50 (µg/ml), TZM-bl cell neutralization assay, control pseudovirus [46] was > 50 µg/mL and the IC80 (µg/ml), TZM-bl pseudovirus neutralization [46] was > 50 µg/mL.

In the case of 4E10 (antibody), the IC80 neutralization [1] is reported as 0.089 µg/mL, the IC80 neutralization [2] is reported as 8.62 µg/mL and the IC80 neutralization [3] is reported as 3.96 µg/mL. For the same substance, the IC80 neutralization [4] was > 50 µg/mL, the IC80 neutralization [5] was 40.3 µg/mL and the IC80 neutralization [6] was 11.6 µg/mL. It also gave an IC80 neutralization [7] of 42.6 µg/mL, an IC80 neutralization [8] of 4.56 µg/mL and an IC80 neutralization [9] of 15.7 µg/mL. For the same substance, the IC80 neutralization [10] was 1.43 µg/mL, the IC80 neutralization [11] was 16.6 µg/mL and the IC80 neutralization [12] was 3.85 µg/mL. The IC80 neutralization [13] was 2.86 µg/mL, the IC80 neutralization [14] was 3.06 µg/mL and the IC80 neutralization [15] was 1.36 µg/mL. It also gave an IC80 neutralization [16] of 0.27 µg/mL, an IC80 neutralization [17] of 1.62 µg/mL and an IC80 neutralization [18] of 1.73 µg/mL. For the same substance, the IC80 neutralization [19] was 1.59 µg/mL, the IC80 neutralization [20] was 2.12 µg/mL and the IC80 neutralization [21] was > 50 µg/mL. The IC80 neutralization [22] was 13.3 µg/mL, the IC80 neutralization [23] was 6.31 µg/mL and the IC80 neutralization [24] was 3.42 µg/mL. For the same substance, the IC80 (µg/ml), TZM-bl pseudovirus neutralization [25] was 0.406 µg/mL, the IC80 (µg/ml), TZM-bl pseudovirus neutralization [26] was > 50 µg/mL and the neutralization IC50 [27] was 0.021 µg/mL. It also gave a neutralization IC50 [28] of 1.21 µg/mL, a neutralization IC50 [29] of 4.66 µg/mL and a neutralization IC50 [30] of 1.97 µg/mL. It also gave a neutralization IC50 [31] of 0.435 µg/mL, a neutralization IC50 [32] of 0.847 µg/mL and a neutralization IC50 [33] of 1.42 µg/mL. For the same substance, the neutralization IC50 [34] was 10.4 µg/mL, the neutralization IC50 [35] was 1.74 µg/mL and the neutralization IC50 [36] was 0.31 µg/mL. The neutralization IC50 [37] was 1.29 µg/mL, the neutralization IC50 [38] was 1.23 µg/mL and the neutralization IC50 [39] was 0.438 µg/mL. It also gave a neutralization IC50 [40] of 0.45 µg/mL, a neutralization IC50 [41] of 5.48 µg/mL and a neutralization IC50 [42] of 1.2 µg/mL. For the same substance, the neutralization IC50 [43] was 0.905 µg/mL, the neutralization IC50 [44] was 0.206 µg/mL and the neutralization IC50 [45] was 1.2 µg/mL. The IC50 (µg/ml), TZM-bl cell neutralization assay, control pseudovirus [46] was > 50 µg/mL and the IC80 (µg/ml), TZM-bl pseudovirus neutralization [46] was > 50 µg/mL.

PGZL1 (antibody) showed an IC80 neutralization [1] of 0.485 µg/mL, an IC80 neutralization [2] of 40.2 µg/mL and an IC80 neutralization [3] of 22.2 µg/mL. The IC80 neutralization [4] was > 50 µg/mL, the IC80 neutralization [5] was > 50 µg/mL and the IC80 neutralization [6] was > 50 µg/mL. For the same substance, the IC80 neutralization [7] was > 50 µg/mL, the IC80 neutralization [8] was 6.6 µg/mL and the IC80 neutralization [9] was > 50 µg/mL. The IC80 neutralization [10] was 12.1 µg/mL, the IC80 neutralization [11] was > 50 µg/mL and the IC80 neutralization [12] was > 50 µg/mL. For the same substance, the IC80 neutralization [13] was 45.6 µg/mL, the IC80 neutralization [14] was > 50 µg/mL and the IC80 neutralization [15] was 6.93 µg/mL. The IC80 neutralization [16] was 0.945 µg/mL, the IC80 neutralization [17] was 15.8 µg/mL and the IC80 neutralization [18] was 6.6 µg/mL. The IC80 neutralization [19] was 29.3 µg/mL, the IC80 neutralization [20] was > 50 µg/mL and the IC80 neutralization [21] was > 50 µg/mL. For the same substance, the IC80 neutralization [22] was > 50 µg/mL, the IC80 neutralization [23] was > 50 µg/mL and the IC80 neutralization [24] was > 50 µg/mL. For the same substance, the IC80 (µg/ml), TZM-bl pseudovirus neutralization [25] was 5.55 µg/mL, the IC80 (µg/ml), TZM-bl pseudovirus neutralization [26] was > 50 µg/mL and the neutralization IC50 [27] was 0.121 µg/mL. For the same substance, the neutralization IC50 [28] was 15.2 µg/mL, the neutralization IC50 [29] was > 50 µg/mL and the neutralization IC50 [30] was 12.8 µg/mL. It also gave a neutralization IC50 [31] of 3.56 µg/mL, a neutralization IC50 [32] of 16.7 µg/mL and a neutralization IC50 [33] of 7.51 µg/mL. For the same substance, the neutralization IC50 [34] was > 50 µg/mL, the neutralization IC50 [35] was 31.7 µg/mL and the neutralization IC50 [36] was 3.12 µg/mL. It also gave a neutralization IC50 [37] of 16.5 µg/mL, a neutralization IC50 [38] of 30.9 µg/mL and a neutralization IC50 [39] of 1.66 µg/mL. For the same substance, the neutralization IC50 [40] was 5.16 µg/mL, the neutralization IC50 [41] was > 50 µg/mL and the neutralization IC50 [42] was 18.7 µg/mL. For the same substance, the neutralization IC50 [43] was 43 µg/mL, the neutralization IC50 [44] was 2.02 µg/mL and the neutralization IC50 [45] was 13.2 µg/mL. For the same substance, the IC50 (µg/ml), TZM-bl cell neutralization assay, control pseudovirus [46] was > 50 µg/mL and the IC80 (µg/ml), TZM-bl pseudovirus neutralization [46] was > 50 µg/mL.
